The results in this text go back to patent publication US5942663A, “Biocidal proteins” (Zeneca Limited, priority 1991, dated 1999).

No end group written: not given here.

The series concerns Fusarium culmorum. Description: Stability of the antifungal activity of the Mj-AMPs. Format: cell-based. Here is the method: Antifungal activity was measured by microspectrophotometry as previously described (Broekaert, WF et al; 1990; FEMS Microbiol Lett, 69, 55-60). Routinely, tests were performed with 20 μl of a (filter-sterilized) test solution and 80 μl of a fungal spore suspension (2×10^4 spores/ml) in half strength Potato Dextrose Broth (Difco). Control microcultures contained 20 μl of (sterile) distilled water and 80 μl of the fungal spore suspension. Unless otherwise stated the test organism was Fusarium culmorum and incubation was done at 25° C. for 48 hours. Percent growth inhibition is defined as 100 times the ratio of the corrected absorbance of the control microculture minus the corrected absorbance of the test microculture over the corrected absorbance at 595 nm of the control microculture. The corrected absorbance values equal the absorbance at 595 nm of the culture measured after 48 hours minus the absorbance at 595 nm measured after 30 min. Values of growth inhibition lower than 10% are not indicated on the chromatograms.
Table 1 summarises the results of further testing of the stability of the antifungal activity of the Mj-AMPs. Tests for antifungal activity were performed with 20 μl samples diluted five-fold with growth medium containing Fusarium culmorum spores (2×10^4 spores/ml), according to the assay method given in Example 2. Control samples contained either Mj-AMP1 at 500 μg/ml or Mj-AMP2 at 100 μg/ml in 10 mM sodium phosphate buffer (pH 7). Reduction was done by addition of DTT at 2.5 mM followed by incubation at 37° C. for 2 hours. pH stability was tested in the following buffers: 20 mM glycine-HCl (pH 2 and 3); 20 mM diethanolamine-HCl (pH 10); and 20 mM glycine-NaOH (pH 11). After 1 hour of incubation in the appropriate buffers the samples were dialyzed for 16 hours against 10 mm sodium phosphate buffer (pH 7). For digestions, proteases were added at 100 μg/ml and incubated at 37° C. for 16 hours.

For “Mj-AMP1: antimicrobial protein from Mirabilis jalapa seeds, dimer of two 4 kDa subunits, 37 residues, SEQ ID NO:1 (QCIGNGGRCNENVGPPYCCSGFCLRQPGQGYGYCKNR; cysteine pairing not given here; also: homodimer)”, the “Relative antifungal activity (shown as % of control activity)” value (80° C., 10 min) was 100 % of control activity; the “Relative antifungal activity (shown as % of control activity)” value (90° C., 10 min) is listed as 100 % of control activity; the “Relative antifungal activity (shown as % of control activity)” value (100° C., 10 min) was 100 % of control activity; the “Relative antifungal activity (shown as % of control activity)” value (Chymotrypsin digestion, 100 μg/ml, 37° C., 16 hours) was 12 % of control activity; the “Relative antifungal activity (shown as % of control activity)” value (Control: Mj-AMP1 500 μg/ml or Mj-AMP2 100 μg/ml in 10 mM sodium phosphate buffer pH 7) is listed as 100 % of control activity; the “Relative antifungal activity (shown as % of control activity)” value (Pronase E digestion, 100 μg/ml, 37° C., 16 hours) is listed as 50 % of control activity. For the same substance, the “Relative antifungal activity (shown as % of control activity)” value reads like this: (Proteinase K digestion, 100 μg/ml, 37° C., 16 hours) 100 % of control activity; (Reduction: DTT 2.5 mM, 37° C., 2 hours) < 6 % of control activity; (Trypsin digestion, 100 μg/ml, 37° C., 16 hours) 75 % of control activity; (pH 2, 60 min) 100 % of control activity; (pH 3, 60 min) 100 % of control activity; (pH 10, 60 min) 100 % of control activity. The “Relative antifungal activity (shown as % of control activity)” value (pH 11, 60 min) was 100 % of control activity. Further, the “Sensitivity to protease (in words)” value runs as follows: (chymotrypsin) “sensitive”; (pronase E) “resisted almost completely”; (proteinase K) “resisted almost completely”; (trypsin) “resisted almost completely”.
